The supplement of paper PMC10567573

B1: SOAT1 (parent)
chain: VYYIFERLCAPLFRNIKQEPFSAR
B2: TRIM55 (parent)
chain: YLPTRGGTTMASGGRFRCPSCRHE

Variants of: B1
Test: protein stability index of a GFP-peptide fusion (GPS, HEK-293T) (PSI 1-6); higher = more stable
Settings: c terminus: a fixed tail appended
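Also: lentivirally expressed fusions sorted by FACS into six bins by GFP to DsRed ratio, PSI derived from sequencing read proportions per bin multiplied by bin number.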

| Variant | protein stability index |
| --- | --- |
| V1G | 1.7 |
| V1P | 1.32 |
| V1D | 1.44 |
| V1M | 2.28 |
| V1N | 2.22 |
| V1R | 2.24 |
| V1F | 2.17 |
| V1C | 1.17 |
| V1A | 1.74 |
| V1S | 2.13 |
| V1Q | 1.32 |
| V1I | 1.82 |
| V1L | 2.5 |
| V1K | 1.55 |
| V1H | 1.41 |
| V1E | 1.3 |
| I4Q | 2.65 |
| I4G | 1.71 |
| I4M | 3.78 |
| I4K | 2.81 |
| I4P | 1.64 |
| I4E | 1.82 |
| I4D | 1.55 |
| I4W | 1.94 |
| I4R | 3.07 |

| Variant | protein stability index |
| --- | --- |
| I4Y | 2.11 |
| I4L | 2.64 |
| I4S | 2.12 |
| Y2H | 2.26 |
| Y2M | 2.83 |
| Y2T | 2.97 |
| Y2C | 1.3 |
| Y2F | 2.86 |
| Y2R | 1.59 |
| Y2I | 3.75 |
| Y2P | 1.44 |
| Y2E | 3.36 |
| Y2K | 1.5 |
| Y2S | 1.87 |
| Y2N | 1.76 |
| Y2W | 2.26 |
| Y2G | 1.89 |
| Y2A | 2.52 |
| Y2Q | 2.42 |
| Y3K | 2.5 |
| Y3S | 3.46 |
| Y3F | 2.75 |
| Y3G | 1.22 |
| Y3M | 1.77 |
| Y3D | 1.45 |

| Variant | protein stability index |
| --- | --- |
| Y3P | 2.12 |
| Y3C | 3.23 |
| Y3V | 3.21 |
| Y3Q | 3.86 |
| Y3E | 1.5 |
| Y3N | 2.11 |
| Y3I | 3 |
| Y3W | 2.93 |
| Y3A | 2.26 |
| Y3H | 1.71 |
| R14P | 2.33 |
| R14D | 3.52 |
| R14C | 2.71 |
| R14N | 2.44 |
| R14F | 2.56 |
| R14T | 3.18 |
| R14Y | 1.87 |
| R14I | 2.04 |
| R14Q | 3.82 |
| R14K | 2.46 |
| R14E | 1.5 |
| R14A | 3.64 |
| R7M | 1.08 |
| R7T | 1.74 |
| R7I | 5.23 |

| Variant | protein stability index |
| --- | --- |
| R7Y | 2.98 |
| R7W | 3.93 |
| R7D | 4.14 |
| R7H | 2.62 |
| R7S | 4.56 |
| F5E | 2.49 |
| F5D | 1.95 |
| F5R | 2.8 |
| F5Y | 1.81 |
| F5M | 1.9 |
| F5V | 3.45 |
| F5N | 1.49 |
| F5H | 1.56 |
| F5C | 2.46 |
| F5P | 2.6 |
| F5A | 1.68 |
| F5S | 1.97 |
| F5I | 1.64 |
| F13N | 3.57 |
| F13I | 2.64 |
| F13H | 2 |
| F13R | 4.31 |
| F13P | 3.2 |
| F13A | 1.96 |
| F13S | 2.09 |

| Variant | protein stability index |
| --- | --- |
| F13T | 4.31 |
| K17C | 4.42 |
| C9K | 1.6 |
| C9G | 3.15 |
| C9W | 4.32 |
| C9I | 1.31 |
| C9L | 1.67 |
| C9R | 3.16 |
| C9F | 1.95 |
| C9T | 2.26 |
| C9P | 3.02 |
| C9N | 1.04 |
| C9H | 2.02 |
| C9S | 2.34 |
| I16D | 3.95 |
| I16K | 2.45 |
| I16W | 3.96 |
| I16A | 1.91 |
| I16T | 1.58 |
| I16G | 2.33 |
| I16M | 1.75 |
| I16Y | 2.17 |
| I16L | 2.61 |
| I16C | 2.46 |
| E6Y | 2.53 |

| Variant | protein stability index |
| --- | --- |
| E6F | 3.18 |
| E6T | 2.61 |
| E6W | 2.59 |
| E6K | 2.23 |
| E6C | 3.08 |
| E6L | 4.01 |
| E6N | 2.65 |
| E6P | 1.83 |
| E6A | 2.38 |
| E6M | 2.41 |
| E6D | 3 |
| E6R | 2.09 |
| L12E | 2.07 |
| L12P | 5.2 |
| L12M | 2.71 |
| L12F | 2.5 |
| L12C | 2.21 |
| L12H | 3.56 |
| L12N | 1.98 |
| L12G | 2.59 |
| L12Y | 2.16 |
| L12K | 2.57 |
| L12I | 3.19 |
| L12T | 1.97 |
| N15T | 3.46 |

| Variant | protein stability index |
| --- | --- |
| N15V | 1.82 |
| N15Y | 1.85 |
| N15K | 2.84 |
| N15E | 3.52 |
| N15A | 2.28 |
| N15W | 2.15 |
| N15M | 2.01 |
| N15I | 2.5 |
| N15H | 2.86 |
| N15G | 1.65 |
| N15L | 2.75 |
| N15F | 1.67 |
| N15C | 2.61 |
| N15R | 2 |
| P11W | 2.77 |
| P11S | 1.57 |
| P11K | 3.65 |
| P11V | 2.39 |
| P11G | 2.08 |
| P11E | 1.76 |
| P11H | 3.92 |
| P11Q | 1.25 |
| P11D | 1.87 |
| P11I | 2.89 |
| P11A | 1.17 |

| Variant | protein stability index |
| --- | --- |
| P11C | 1.09 |
| P11F | 1.83 |
| P11N | 1.86 |
| P11Y | 1.83 |
| P11R | 2.24 |
| P11L | 1.89 |
| L8D | 3.16 |
| L8T | 2 |
| L8E | 3.97 |
| L8P | 2.29 |
| L8I | 1.62 |
| L8C | 1.64 |
| L8K | 3.25 |
| L8R | 2.86 |
| A10R | 1.53 |
| A10M | 1.39 |
| A10W | 2.4 |
| A10T | 2.74 |
| A10L | 3.17 |
| A10S | 2.39 |
| A10N | 3.54 |
| A10V | 3.16 |
| A10H | 3.56 |

Variants of: B2
Test: as above
Settings: c terminus: a fixed tail appended

| Variant | protein stability index |
| --- | --- |
| R17C | 1.6 |
| R17K | 1.48 |
| R17L | 2.6 |
| R17I | 1.69 |
| R17N | 2.24 |
| R17H | 2.56 |
| R17S | 2.9 |
| R17T | 2.96 |
| S20M | 1.04 |
| S20Y | 1.46 |
| S20P | 2.39 |
| S20H | 2.13 |
| S20Q | 1.8 |
| S20T | 2.48 |
| S20E | 2.01 |
| S20K | 2.27 |
| S20N | 1.93 |
| S20W | 1.12 |
| S20R | 2.04 |
| S20D | 1.98 |
| S20L | 2.09 |
| S20G | 1.92 |
| G13R | 1 |

| Variant | protein stability index |
| --- | --- |
| G13W | 1.12 |
| G13Q | 1.51 |
| G13T | 1.88 |
| C18K | 3.34 |
| C18W | 1.7 |
| C18E | 2.98 |
| C18G | 3.27 |
| C18L | 3.47 |
| C18P | 3.56 |
| C18F | 2.43 |
| C18H | 2.94 |
| C18T | 3.74 |
| C18N | 3.15 |
| C18Y | 2.44 |
| C18S | 3.61 |
| C18V | 2.71 |
| C18M | 2.4 |
| C21M | 2.51 |
| C21W | 2.21 |
| C21L | 2.86 |
| C21T | 3.14 |
| C21H | 3 |
| C21I | 3.09 |

| Variant | protein stability index |
| --- | --- |
| C21D | 3.62 |
| C21E | 4.03 |
| C21Y | 2.35 |
| C21S | 3.03 |
| C21N | 3.96 |
| C21A | 3.98 |
| G14T | 2.89 |
| G14C | 3.76 |
| G14L | 1.29 |
| G14N | 2.42 |
| G14A | 2.23 |
| G14Y | 1.69 |
| G14Q | 1.26 |
| G14M | 2.76 |
| G14K | 1.83 |
| G14F | 2.04 |
| H23V | 2 |
| H23M | 1.52 |
| H23K | 3.39 |
| H23P | 3.14 |
| H23C | 3.34 |
| H23S | 3.03 |
| R15T | 2.53 |

| Variant | protein stability index |
| --- | --- |
| R15V | 1.24 |
| R15H | 1.39 |
| R15E | 2.35 |
| R15M | 1.31 |
| R15Y | 1.44 |
| R15C | 2.02 |
| R15K | 2.05 |
| R15A | 2.02 |
| R15D | 2.78 |
| R15L | 1.81 |
| R15Q | 1.58 |
| R15S | 1.65 |
| R15F | 2.76 |
| R15P | 1.49 |
| P19T | 2.18 |
| P19Y | 2 |
| P19W | 3.12 |
| P19Q | 3.5 |
| P19I | 1.38 |
| P19D | 3.35 |
| P19G | 2.34 |
| P19S | 2.49 |
| P19N | 2.6 |

| Variant | protein stability index |
| --- | --- |
| P19E | 2.01 |
| P19V | 1.78 |
| P19R | 2.78 |
| P19M | 1.61 |
| F16C | 3.06 |
| F16Y | 1.57 |
| F16K | 2.01 |
| F16V | 2.71 |
| F16T | 2.98 |
| F16S | 3.94 |
| F16N | 2.33 |
| F16M | 1.74 |
| F16A | 3.43 |
| R22A | 2.59 |
| R22K | 2.94 |
| R22H | 2.4 |
| R22P | 3.78 |
| R22Q | 2.12 |
| R22F | 2.38 |
| R22D | 2.9 |
| R22W | 2.01 |
| R22V | 2.25 |
| R22N | 2.4 |

| Variant | protein stability index |
| --- | --- |
| R22S | 3.2 |
| R22C | 1.97 |
| R22I | 2.4 |
| R22E | 4.06 |
| R22G | 2.79 |
| R22Y | 2.07 |
| E24S | 1.53 |
| E24V | 2.29 |
| E24L | 1.57 |
| E24C | 2.07 |
| E24H | 1.47 |
| E24K | 2.04 |
| E24Y | 2.55 |
| E24D | 1.93 |
| E24G | 1.06 |
| E24A | 1.59 |
| E24T | 1.78 |
| E24I | 1.41 |
| E24P | 2.29 |
| E24Q | 3.06 |
| E24M | 1.6 |
